Experimental data as given in PMC2668148.

Tested on: N[C@@H](CCC(=O)Nc1ccc([N+](=O)[O-])cc1)C(=O)O
Test: purified protein
Conditions: apparent constant; hydrolysis

“HpGT (Helicobacter pylori gamma-glutamyltranspeptidase) (Helicobacter pylori 26695)” was tested. Which Km did it give?
Its Km is 22.1 ± 1.4 µM.

And the Vmax?
The Vmax was 5.18 µmol/min/mg.
